Substitutions are numbered along the chain they refer to. “And” between values parts separate entries of the source, which are not always exact repeats. Identical values can stand only once.
How the values were obtained:
[1] = biological target: T1, human IL-17A (recombinant) (human, UniProt Q16552 24-155); test: cell-based or functional assay
[2] = biological target: T1, human IL-17A (recombinant); test: SPR (Biacore 3000), mAb captured by anti-IgG Fc, antigen in solution, 25 C, 1:1 Langmuir
mouse IL-17A = biological target: T2, mouse IL-17A (mouse, UniProt Q62386 26-158); test: SPR (Biacore 3000), mAb captured by anti-IgG Fc, antigen in solution, 1:1 Langmuir;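 further: run in PBS containing BSA and P20 at 25 °C, antigen injected at four dilutions, 3 min association, dissociation followed 20 min to 2 h, two independent experiments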
T2 sequence: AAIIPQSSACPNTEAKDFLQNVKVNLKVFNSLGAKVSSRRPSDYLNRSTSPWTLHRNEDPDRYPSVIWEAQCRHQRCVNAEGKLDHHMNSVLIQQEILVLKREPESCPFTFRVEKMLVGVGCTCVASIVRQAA

cynomolgus IL-17A [3] = biological target: T3, cynomolgus IL-17A (cynomolgus, UniProt Q16552 24-155 (human entry), limits assumed); test: as above
T3 construct: also called Cyno IL-17A
T3 chain: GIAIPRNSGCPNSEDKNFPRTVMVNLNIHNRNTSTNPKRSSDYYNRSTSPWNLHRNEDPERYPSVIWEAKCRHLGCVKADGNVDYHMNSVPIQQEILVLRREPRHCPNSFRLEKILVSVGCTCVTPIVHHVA

rat IL-17A = biological target: T4, rat IL-17A (rat, UniProt Q61453 18-150); test: as above
T4 chain: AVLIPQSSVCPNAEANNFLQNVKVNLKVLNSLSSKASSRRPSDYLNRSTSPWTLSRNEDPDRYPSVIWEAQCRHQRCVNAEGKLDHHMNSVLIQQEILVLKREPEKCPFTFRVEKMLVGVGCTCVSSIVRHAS

cynomolgus TNF-α [4] = biological target: T5, cynomolgus TNF-α (cynomolgus, UniProt P79337 77-233); test: cell-based or functional assay
[5] = biological target: native (endogenous) human TNF-α (human, UniProt P01375 77-233); test: cell-based or functional assay
[6] = biological target: T6, rhTNF-α (recombinant human, soluble) (human, UniProt P01375 77-233); test: cell-based or functional assay
[7] = biological target: T6, rhTNF-α (recombinant human, soluble); test: cell-based or functional assay; remark: listed apart in the source
[8] = biological target: T1, human IL-17A (recombinant); test: competition ELISA: biotinylated rhIL-17A binding to plate-coated rhIL-17RA-Fc; Experiment 1; 95% CI 0.1171-0.1378
recombinant human IL-17F = biological target: T7, recombinant human IL-17F (human, UniProt Q96PD4 31-163); test: binding to rhIL-17A in the absence or presence of IL-17F
T7 sequence: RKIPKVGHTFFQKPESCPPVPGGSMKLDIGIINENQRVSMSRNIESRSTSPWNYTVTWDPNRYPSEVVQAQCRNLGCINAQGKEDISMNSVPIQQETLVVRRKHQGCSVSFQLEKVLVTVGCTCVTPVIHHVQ

[9] = biological target: T8, recombinant human IL-17A/F heterodimer (human, UniProt Q16552 24-155; Q96PD4 31-163); test: cell-based or functional assay
[10] = biological target: T8, recombinant human IL-17A/F heterodimer; test: cell-based or functional assay; remark: listed apart in the source
[11] = biological target: T1, human IL-17A (recombinant); test: cell-based or functional assay; remark: listed apart in the source
[12] = biological target: T1, human IL-17A (recombinant); test: competition ELISA: biotinylated rhIL-17A binding to plate-coated rhIL-17RA-Fc
[13] = biological target: T1, human IL-17A (recombinant); test: competition ELISA: biotinylated rhIL-17A binding to plate-coated rhIL-17RA-Fc; Experiment 2; 95% CI 0.1639-0.1853
[14] = biological target: T6, rhTNF-α (recombinant human, soluble); test: cell-based or functional assay; remark: listed apart in the source
[15] = biological target: T6, rhTNF-α (recombinant human, soluble); test: SPR (Biacore 3000), mAb captured by anti-IgG Fc, antigen in solution, 25 C, 1:1 Langmuir
cynomolgus IL-17A [16] = biological target: T3, cynomolgus IL-17A; test: cell-based or functional assay
cynomolgus IL-17A [17] = biological target: T3, cynomolgus IL-17A; test: cell-based or functional assay
[18] = biological target: T1, human IL-17A (recombinant); test: competition ELISA: biotinylated rhIL-17A binding to plate-coated rhIL-17RA-Fc; Experiment 3; 95% CI 0.2415-0.2667
cynomolgus TNF-α [19] = biological target: T5, cynomolgus TNF-α; test: SPR (Biacore 3000), mAb captured by anti-IgG Fc, antigen in solution, 1:1 Langmuir
[20] = biological target: protease-resistant form of human transmembrane TNF-α (lacks amino acids Val1 to Pro12) overexpressed by K2 … (human, UniProt P01375 1-233); test: cell-based or functional assay
rat TNF-α = biological target: T9, rat TNF-α (rat, UniProt P16599 80-235); test: SPR (Biacore 3000), mAb captured by anti-IgG Fc, antigen in solution
T9 sequence: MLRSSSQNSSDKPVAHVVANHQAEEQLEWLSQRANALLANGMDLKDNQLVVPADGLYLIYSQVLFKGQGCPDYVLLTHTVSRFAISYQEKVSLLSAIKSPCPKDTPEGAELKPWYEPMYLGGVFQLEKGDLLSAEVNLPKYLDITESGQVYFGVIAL

mouse TNF-α = biological target: T10, mouse TNF-α (mouse, UniProt P06804 80-235); test: as above
T10 sequence: T9 sequence with A23V, I59V, S92N, I97V, M118I, L131Q, I144F, T145A

B1: mAb 8759 (bispecific anti-TNF-α/IL-17A antibody, IgG1, YTE) (bispecific antibody)
heavy 1: not shown
light 1: not shown
heavy 2: QVQLLESGGGLVQPGGSLRLSCAASGFTFSSYAMSWVRQAPGKGLEWVSTISLTSGFTYYADSVKGRFTISRDNSKNTLYLQMNSLRAEDTAVYYCARQLTLDVWGQGTLVTVSSASTKGPSVFPLAPSSKSTSGGTAALGCLVKDYFPEPVTVSWNSGALTSGVHTFPAVLQSSGLYSLSSVVTVPSSSLGTQTYICNVNHKPSNTKVDKKVEPKSCDKTHTCPPCPAPELLGGPSVFLFPPKPKDTLYITREPEVTCVVVDVSHEDPEVKFNWYVDGVEVHNAKTKPREEQYNSTYRVVSVLTVLHQDWLNGKEYKCKVSNKALPAPIEKTISKAKGQPREPQVYTLPPSREEMTKNQVSLTCLVKGFYPSDIAVEWESNGQPENNYKTTPPVLDSDGSFLLYSKLTVDKSRWQQGNVFSCSVMHEALHNHYTQKSLSLSPGK
light 2: QSVLTQPPSVSVAPGQTARISCSGDNLGDKYANWYQQKPGQAPVLVIYDDIDRPSGIPERFSGSNSGNTATLTISGTQAEDEADYYCGSYDFFLGMIVFGGGTKLTVLGQPKAAPSVTLFPPSSEELQANKATLVCLISDFYPGAVTVAWKADSSPVKAGVETTTPSKQSNNKYAASSYLSLTPEQWKSHRSYSCQVTHEGSTVEKTVAPTECS
IC50 (µg/mL); Inhibition of native IL-17A mediated IL-6 production by NHDF; Experiment 1 [1]: 0.0478 µg/mL
IC50 (µg/mL); Inhibition of native IL-17A mediated IL-6 production by NHDF; Experiment 2 [1]: 0.038 µg/mL
IC50 (µg/mL); Inhibition of native IL-17A mediated IL-6 production by NHDF; Experiment 3 [1]: 0.0608 µg/mL
Kd [2]: 0.0244 nM and 0.0389 nM
koff [2]: 4.36e-05 s⁻¹ and 3.74e-05 s⁻¹
kon [2]: 1.78e+06 M⁻¹ s⁻¹ and 961000 M⁻¹ s⁻¹
Kd (mouse IL-17A): 1.01 nM
koff (mouse IL-17A): 0.00101 s⁻¹
kon (mouse IL-17A): 999000 M⁻¹ s⁻¹
Kd (cynomolgus IL-17A [3]): 0.0265 nM and 0.0277 nM
koff (cynomolgus IL-17A [3]): 3.59e-05 s⁻¹ and 4.4e-05 s⁻¹
kon (cynomolgus IL-17A [3]): 1.35e+06 M⁻¹ s⁻¹ and 1.59e+06 M⁻¹ s⁻¹
Kd (rat IL-17A): 13.9 nM
koff (rat IL-17A): 0.00274 s⁻¹
kon (rat IL-17A): 197000 M⁻¹ s⁻¹
IC50 (nM); Inhibition of cyno TNF-α mediated cytotoxicity in WEHI-164 cells; Experiment 1 (cynomolgus TNF-α [4]): 3.82 nM
IC50 (nM); Inhibition of cyno TNF-α mediated cytotoxicity in WEHI-164 cells; Experiment 2 (cynomolgus TNF-α [4]): 14.9 nM
IC50 (nM); Inhibition of cyno TNF-α mediated cytotoxicity in WEHI-164 cells; Experiment 3 (cynomolgus TNF-α [4]): 7.32 nM
IC50 (nM); KYM-1D4 cells, cytotoxicity mediated by endogenous soluble TNF-α; Experiment 1 [5]: 0.283 nM
IC50 (nM); KYM-1D4 cells, cytotoxicity mediated by endogenous soluble TNF-α; Experiment 2 [5]: 0.294 nM
IC50 (nM); KYM-1D4 cells, cytotoxicity mediated by endogenous soluble TNF-α; Experiment 3 [5]: 0.143 nM
IC50 (nM); WEHI-164 cells cytotoxicity mediated by soluble rhTNF-α; Experiment 1 [6]: 1.2 nM
IC50 (nM); WEHI-164 cells cytotoxicity mediated by soluble rhTNF-α; Experiment 2 [6]: 1.73 nM
IC50 (nM); WEHI-164 cells cytotoxicity mediated by soluble rhTNF-α; Experiment 3 [6]: 0.478 nM
fold of IC50 against the parental anti-TNF-α antibodies mAb 9809 and mAb 6696; rhTNF-α-induced cytotoxicity in WEHI-164 cells [7]: ~3 fold
IC50 [8]: 0.127 µg/mL
binding result (recombinant human IL-17F): no binding
IC50 (µg/mL); Inhibition of IL-17A/F mediated GROα production by NHDF; Experiment 1 [9]: 0.283 µg/mL
IC50 (µg/mL); Inhibition of IL-17A/F mediated GROα production by NHDF; Experiment 2 [9]: 0.46 µg/mL
IC50 (µg/mL); Inhibition of IL-17A/F mediated GROα production by NHDF; Experiment 3 [9]: 0.435 µg/mL
IC50 (µg/mL); Inhibition of IL-17A/F mediated IL-6 production by NHDF; Experiment 1 [10]: 0.117 µg/mL
IC50 (µg/mL); Inhibition of IL-17A/F mediated IL-6 production by NHDF; Experiment 2 [10]: 0.133 µg/mL
IC50 (µg/mL); Inhibition of IL-17A/F mediated IL-6 production by NHDF; Experiment 3 [10]: 0.102 µg/mL
IC50 (µg/mL); Inhibition of native IL-17A mediated GROα production by NHDF; Experiment 1 [11]: 0.0755 µg/mL
IC50 (µg/mL); Inhibition of native IL-17A mediated GROα production by NHDF; Experiment 2 [11]: 0.0692 µg/mL
IC50 (µg/mL); Inhibition of native IL-17A mediated GROα production by NHDF; Experiment 3 [11]: 0.0653 µg/mL
fold IC50 against the parental anti-IL-17A antibodies mAb 4782 and mAb 7206 [12]: ~3 fold
IC50 [13]: 0.174 µg/mL
IC50 (nM); KYM-1D4 cells, cytotoxicity mediated by soluble rhTNF-α; Experiment 1 [14]: 0.13 nM
IC50 (nM); KYM-1D4 cells, cytotoxicity mediated by soluble rhTNF-α; Experiment 2 [14]: 0.261 nM
IC50 (nM); KYM-1D4 cells, cytotoxicity mediated by soluble rhTNF-α; Experiment 3 [14]: 0.147 nM
Kd [15]: 0.0232 nM and 0.0192 nM
koff [15]: 4.07e-05 s⁻¹ and 3.76e-05 s⁻¹
kon [15]: 1.75e+06 M⁻¹ s⁻¹ and 1.96e+06 M⁻¹ s⁻¹
IC50 (µg/mL); Inhibition of cyno IL-17A mediated GROα production by NHDF; Experiment 3 (cynomolgus IL-17A [16]): 0.142 µg/mL
IC50 (µg/mL); Inhibition of cyno IL-17A mediated IL-6 production by NHDF; Experiment 3 (cynomolgus IL-17A [17]): 0.0476 µg/mL
IC50 [18]: 0.254 µg/mL
Kd (cynomolgus TNF-α [19]): 0.44 nM and 0.16 nM
koff (cynomolgus TNF-α [19]): 0.000114 s⁻¹
kon (cynomolgus TNF-α [19]): 259000 M⁻¹ s⁻¹ and 710000 M⁻¹ s⁻¹
IC50 (nM); KYM-1D4 cells, cytotoxicity mediated by membrane bound human TNF-α; Experiment 1 [20]: 0.653 nM
IC50 (nM); KYM-1D4 cells, cytotoxicity mediated by membrane bound human TNF-α; Experiment 2 [20]: 0.883 nM
IC50 (nM); KYM-1D4 cells, cytotoxicity mediated by membrane bound human TNF-α; Experiment 3 [20]: 0.3 nM
binding result (rat TNF-α): no binding (tested: up to 100 nM)
binding result (mouse TNF-α): no binding (tested: up to 100 nM)

From patent US20200010571A1 (Janssen / Centocor, published 2020)
